The assay has as its target ETS1 transcription factor (endogenous, FP-RMS cells) (human (endogenous in Rh30 and Rh41)) (UniProt P14921). Put plainly: co-IP; endogenous proteins from Rh30 and Rh41 cells, IP with ETS1 antibody (rabbit IgG as negative control), immunoblot; also with Ethidium Bromide or Benzonase in the IP; also cells pre-treated 16 hours with 1 µM YK-4-279 or DMSO and the same included in the IP reaction, recovery by densitometry normalized to ETS1. A general note: Immunoblotting shows a protein as a band on a membrane.
Chain of UniProt P14921 (P14921 whole entry): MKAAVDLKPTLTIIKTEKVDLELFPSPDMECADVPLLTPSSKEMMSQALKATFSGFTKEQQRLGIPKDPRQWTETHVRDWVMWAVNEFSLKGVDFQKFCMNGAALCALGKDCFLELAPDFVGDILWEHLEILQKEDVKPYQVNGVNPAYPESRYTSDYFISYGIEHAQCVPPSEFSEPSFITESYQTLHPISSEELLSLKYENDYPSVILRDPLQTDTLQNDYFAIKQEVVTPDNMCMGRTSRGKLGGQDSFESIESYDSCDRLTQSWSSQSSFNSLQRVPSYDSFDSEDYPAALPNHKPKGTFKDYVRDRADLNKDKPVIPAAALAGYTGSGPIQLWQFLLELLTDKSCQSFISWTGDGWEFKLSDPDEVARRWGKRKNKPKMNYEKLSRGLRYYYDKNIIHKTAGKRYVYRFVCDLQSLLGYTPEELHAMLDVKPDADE

Consider “PAX3-FOXO1 oncofusion (endogenous, FP-RMS cells) (natural protein)”, for which the co-immunoprecipitated PAX3-FOXO1 with 1 µM YK-4-279, percent of DMSO control (Rh30 cells) (% of DMSO control) stood at 50 and the co-immunoprecipitated PAX3-FOXO1 with 1 µM YK-4-279, percent of DMSO control (Rh41 cells) (% of DMSO control) came to 65.

The values above are taken from article PMC11700839.
